Usually Kd stands for the constant that tells how readily two partners part at equilibrium. Lower therefore signals a tighter complex.

The target in experiment [1] is Aβ1-42 monomer (human). In words: cell-based or functional assay.
The target in experiment [2] is T1, Aβ1-42 monomer (human).
T1 construct: Synthetic peptide: Sigma A9810 dissolved in DMSO for Biacore; GenScript RP10017 in NaOH/PBS for the ThT assay; also called human Aβ1-42
In words: SPR, Biacore T200; IgG captured on Protein A chip, Aβ1-42 monomer flowed over. The protocol: (§1) The affinity of an antibody to Aβ1-42 monomer was detected by capturing antibody on the chip. IgG was affinity-captured onto Protein A biosensing chip, and then the antigen […] monomer was allowed to flow through the surface of the chip. The reaction signals were detected in real time with Biacore T200 instrument to generate a binding and dissociation curve. At the end of each experimental cycle, after the dissociation was completed, the biosensor chip was washed and regenerated with 10 mM Glycine-HCl (pH1.5).

Experiment [3] concerns the target T2, Aβ1-42 fibrils (human).
T2 construct: Synthetic Aβ1-42 polypeptide (GL Biochem) made into fibrils in vitro (DMSO, diluted in water, 37 °C for 10 days); In the phagocytosis assays the fibrils were fluorescence (FITC) labeled; also called Aβ fibrils; Abeta fibrils
In words: SPR, Biacore T200; Aβ1-42 fibrils amine-coupled to CM5 chip, antibody flowed over. On the procedure:
(§2) The affinity of an antibody to Aβ1-42 fibrils was detected by the method of amino coupling. Aβ1-42 fibrils was coupled to CM5 biosensing chip (200 RU), and then the antibody molecules were allowed to flow through the surface of the chip. The reaction signals were detected in real time with Biacore T200 instrument to generate a binding and dissociation curve. At the end of each experimental cycle, after the dissociation was completed, the biosensor chip was washed and regenerated with 10 mM Glycine-HCl (pH 1.5). The positive antibody, Aducanumab, was prepared according to the sequence information about Aducanumab released by WHO (see WHO Drug Information, Vol. 28, No. 3, 2014), and the preparation method was described in Example 4 of the present disclosure.
Background: In SPR one partner is held on a chip, and binding of the other changes the refractive index at the surface.

Experiment [4] has as its target T2, Aβ1-42 fibrils. Description: SPR, Biacore T200; Aβ1-42 fibrils on CM5 chip; reference Aducanumab. On the procedure:
as §2

For experiment [5], the target named is T1, Aβ1-42 monomer. In words: SPR, Biacore T200; IgG on Protein A chip, Aβ1-42 monomer as analyte; reference Aducanumab. The protocol: as §1

T2 sequence (peptide, as listed by the source): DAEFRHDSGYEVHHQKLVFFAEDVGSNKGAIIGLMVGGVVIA
T1 sequence (peptide, as listed by the source): as above

B1: HAB-5101 (antibody, human IgG1, kappa, V domains shown)
VH: QVTLKESGPALVKPTQTLTLTCTFSGFSLSTSGMGVSWIRQPPGKALEWLAHIYWDDVSLYNPSLKSRLTISKDTSKNQVVLTMTNMDPVDTATYYCARRRIITVVDAMDYWGQGTTVTVSS
VL: DVVMTQTPLSLPVTPGEPASISCRSSQSIVHSNGNTYLEWYLQKPGQSPKLLIYKVSNRFSGVPDRFSGSGSGTDFTLKISRVEAEDVGVYYCSQGSRVPPTFGGGTKVEIKR
As for B1, in the experiment with Aβ1-42 monomer [1], the “IC50 (read off the curve)” value is about 0.8 µM. The Kd was 333 nM with Aβ1-42 monomer [2] and 1.22 nM with Aβ1-42 fibrils [3].

B2: HAB-9001 (antibody, human IgG1, kappa, V domains shown)
VH: QVTLKESGPALVKPTQTLTLTCTFSGFSLSTFGMGVGWIRQPPGKALEWLAHIWWDDNKYYNPALKSRLTISKDTSKNQVVLTMTNMDPVDTATYYCARRGFHLGSRGDYFDHWGQGTTVTVSS
VL: DVVMTQTPLSLPVTPGEPASISCRSSQSIVHSNGNTYLEWYLQKPGQSPQLLIYKVSNRFSGVPDRFSGSGSGTDFTLKISRVEAEDVGVYYCFQGSRVPLTFGQGTKLEIKR
Regarding B2, the “affinity relative to Aducanumab” value with Aβ1-42 fibrils [4] and in the experiment with Aβ1-42 monomer [5] was 2 orders of magnitude in each case. Further, the Kd turned out to be 27.9 nM in the experiment with Aβ1-42 monomer [2] and 0.213 nM in the experiment with Aβ1-42 fibrils [3].

B3: HAB-2401 (antibody, human IgG1, kappa, V domains shown)
VH: EVQLVQSGAEVKKPGASVKVSCKVSGYTLTNTYMHWVRQAPGKGLEWMGRIDPTNGNTKYAPKFKDRVTMTADTSTDTAYMELSSLRSEDTAVYYCARRVYYYDSTYNYWGKGTTVTVSS
VL: DIQMTQSPSSLSASVGDRVTITCKSSQSLLNSGNQKNYLTWYQQKPGKVPKLLIYWASTRESGVPSRFSGSGSGTDFTLTISSLQPEDVATYYCQNDYNYPLTFGGGTKVEIKR
In the case of B3, the Kd came out at 229 nM in the experiment with Aβ1-42 monomer [2] and 11.7 nM in the experiment with Aβ1-42 fibrils [3].
